Results from IntAct's records for PubMed 9756887.

B1: Focal adhesion kinase 1 (Homo sapiens), Q05397 (parent)
chain: MAAAYLDPNLNHTPNSSTKTHLGTGMERSPGAMERVLKVFHYFESNSEPTTWASIIRHGDATDVRGIIQKIVDSHKVKHVACYGFRLSHLRSEEVHWLHVDMGVSSVREKYELAHPPEEWKYELRIRYLPKGFLNQFTEDKPTLNFFYQQVKSDYMLEIADQVDQEIALKLGCLEIRRSYWEMRGNALEKKSNYEVLEKDVGLKRFFPKSLLDSVKAKTLRKLIQQTFRQFANLNREESILKFFEILSPVYRFDKECFKCALGSSWIISVELAIGPEEGISYLTDKGCNPTHLADFTQVQTIQYSNSEDKDRKGMLQLKIAGAPEPLTVTAPSLTIAENMADLIDGYCRLVNGTSQSFIIRPQKEGERALPSIPKLANSEKQGMRTHAVSVSETDDYAEIIDEEDTYTMPSTRDYEIQRERIELGRCIGEGQFGDVHQGIYMSPENPALAVAIKTCKNCTSDSVREKFLQEALTMRQFDHPHIVKLIGVITENPVWIIMELCTLGELRSFLQVRKYSLDLASLILYAYQLSTALAYLESKRFVHRDIAARNVLVSSNDCVKLGDFGLSRYMEDSTYYKASKGKLPIKWMAPESINFRRFTSASDVWMFGVCMWEILMHGVKPFQGVKNNDVIGRIENGERLPMPPNCPPTLYSLMTKCWAYDPSRRPRFTELKAQLSTILEEEKAQQEERMRMESRRQATVSWDSGGSDEAPPKPSRPGYPSPRSSEGFYPSPQHMVQTNHYQVSGYPGSHGITAMAGSIYPGQASLLDQTDSWNHRPQEIAMWQPNVEDSTVLDLRGIGQVLPTHLMEERLIRQQQEMEEDQRWLEKEERFLKPDVRLSRGSIDREDGSLQGPIGNQHIYQPVGKPDPAAPPKKPPRPGAPGHLGSLASLSSPADSYNEGVKLQPQEISPPPTANLDRSNDKVYENVTGLVKAVIEMSSKIQPAPPEEYVPMVKEVGLALRTLLATVDETIPLLPASTHREIEMAQKLLNSDLGELINKMKLAQQYVMTSLQQEYKKQMLTAAHALAVDAKNLLDVIDQARLKMLGQTRPH

Experiments:
[1] = variants of: B1; conditions: with paxi_human PXN
[2] = variants of: B1; conditions: with tgfi1_mouse Tgfb1i1, Q62219
Sequence of tgfi1_mouse Tgfb1i1, Q62219 (Q62219 whole entry): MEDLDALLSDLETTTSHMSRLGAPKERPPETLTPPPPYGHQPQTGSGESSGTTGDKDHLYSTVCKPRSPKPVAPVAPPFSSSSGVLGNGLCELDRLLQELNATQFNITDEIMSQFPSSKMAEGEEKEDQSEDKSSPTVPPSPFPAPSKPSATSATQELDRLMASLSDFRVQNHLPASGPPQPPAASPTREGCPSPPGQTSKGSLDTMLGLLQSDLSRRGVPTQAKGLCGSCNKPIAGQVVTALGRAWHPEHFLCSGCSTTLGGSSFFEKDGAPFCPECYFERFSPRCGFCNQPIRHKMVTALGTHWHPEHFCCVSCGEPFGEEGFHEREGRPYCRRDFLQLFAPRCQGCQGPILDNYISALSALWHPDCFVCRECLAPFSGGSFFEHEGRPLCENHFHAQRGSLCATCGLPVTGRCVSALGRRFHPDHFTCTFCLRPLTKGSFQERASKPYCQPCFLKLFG

Variant | effect of a mutation on the interaction [1] | effect of a mutation on the interaction [2]
L1034S | disrupting interaction | disrupting interaction
V928G | disrupting interaction | disrupting interaction
